# Test results from patent publication US20220040297A1 (Chugai, published 2022).
# Numbering of substitutions follows the chain as printed. Names and notes keep the numbering of the source.
# B1: CE115HA000 H96P (antibody, name in Kabat numbering, V domains shown)
# VH: QVQLVESGGGVVQPGRSLRLSCAASGFTFSNAWMHWVRQAPGKGLEWVAQIKAKSNNYATYYAESVKGRFTISRDDSKNSLYLQMNSLKTEDTAVYYCRYVPYGAYYGVDAWGQGTTVTVSS
# VL: DIVMTQSPLSLPVTPGEPASISCRSSQSLVHSNRNTYLHWYQQKPGQAPRLLIYKVSNRFSGVPDRFSGSGSGTDFTLKISRVEAEDVGVYYCGQGTQVPYTFGQGTKLEIK
# B2: CE115HA000 K52F (antibody, name in Kabat numbering, V domains shown)
# VH: B1 VH with K52F, P102H
# VL: B1 VL
# B3: CE115HA000 N31Q (antibody, name in Kabat numbering, V domains shown)
# VH: B1 VH with N31Q, P102H
# VL: B1 VL
# B4: CE115HA000 K75T (antibody, name in Kabat numbering, V domains shown)
# VH: B1 VH with K78T, P102H
# VL: B1 VL
# B5: CE115HA000 K52E (antibody, name in Kabat numbering, V domains shown)
# VH: B1 VH with K52E, P102H
# VL: B1 VL
# B6: CE115HA000 K43E (antibody, name in Kabat numbering, V domains shown)
# VH: B1 VH with K43E, P102H
# VL: B1 VL
# B7: CE115HA000 I51E (antibody, name in Kabat numbering, V domains shown)
# VH: B1 VH with I51E, P102H
# VL: B1 VL
# B8: CE115HA000 K43Q (antibody, name in Kabat numbering, V domains shown)
# VH: B1 VH with K43Q, P102H
# VL: B1 VL
# B9: CE115HA000 K52N (antibody, name in Kabat numbering, V domains shown)
# VH: B1 VH with K52N, P102H
# VL: B1 VL
# B10: CE115HA000 K52Y (antibody, name in Kabat numbering, V domains shown)
# VH: B1 VH with K52Y, P102H
# VL: B1 VL
# B11: CE115HA000 K52bS (antibody, name in Kabat numbering, V domains shown)
# VH: B1 VH with K54S, P102H
# VL: B1 VL
# B12: CE115HA000 N31D (antibody, name in Kabat numbering, V domains shown)
# VH: B1 VH with N31D, P102H
# VL: B1 VL
# B13: CE115HA000 K52R (antibody, name in Kabat numbering, V domains shown)
# VH: B1 VH with K52R, P102H
# VL: B1 VL
# B14: CE115HA000 H96Q (antibody, name in Kabat numbering, V domains shown)
# VH: B1 VH with P102Q
# VL: B1 VL
# B15: CE115HA000 K52D (antibody, name in Kabat numbering, V domains shown)
# VH: B1 VH with K52D, P102H
# VL: B1 VL
# B16: CE115HA000 K52H (antibody, name in Kabat numbering, V domains shown)
# VH: B1 VH with K52H, P102H
# VL: B1 VL
# B17: CE115HA000 K64A (antibody, name in Kabat numbering, V domains shown)
# VH: B1 VH with K67A, P102H
# VL: B1 VL
# B18: CE115HA000 K52bQ (antibody, name in Kabat numbering, V domains shown)
# VH: B1 VH with K54Q, P102H
# VL: B1 VL
# B19: CE115HA000 N31W (antibody, name in Kabat numbering, V domains shown)
# VH: B1 VH with N31W, P102H
# VL: B1 VL
# B20: CE115HA000 N53A (antibody, name in Kabat numbering, V domains shown)
# VH: B1 VH with N56A, P102H
# VL: B1 VL
# B21: CE115HA000 K64S (antibody, name in Kabat numbering, V domains shown)
# VH: B1 VH with K67S, P102H
# VL: B1 VL
# B22: CE115HA000 K52bL (antibody, name in Kabat numbering, V domains shown)
# VH: B1 VH with K54L, P102H
# VL: B1 VL
# B23: CE115HA000 H96Y (antibody, name in Kabat numbering, V domains shown)
# VH: B1 VH with P102Y
# VL: B1 VL
# B24: CE115HA000 L78I (antibody, name in Kabat numbering, V domains shown)
# VH: B1 VH with L81I, P102H
# VL: B1 VL
# B25: CE115HA000 I51D (antibody, name in Kabat numbering, V domains shown)
# VH: B1 VH with I51D, P102H
# VL: B1 VL
# B26: CE115HA000 K52bN (antibody, name in Kabat numbering, V domains shown)
# VH: B1 VH with K54N, P102H
# VL: B1 VL
# B27: CE115HA000 N31A (antibody, name in Kabat numbering, V domains shown)
# VH: B1 VH with N31A, P102H
# VL: B1 VL
# B28: CE115HA000 K52bY (antibody, name in Kabat numbering, V domains shown)
# VH: B1 VH with K54Y, P102H
# VL: B1 VL
# B29: CE115HA000 N31I (antibody, name in Kabat numbering, V domains shown)
# VH: B1 VH with N31I, P102H
# VL: B1 VL
# B30: CE115HA000 N31H (antibody, name in Kabat numbering, V domains shown)
# VH: B1 VH with N31H, P102H
# VL: B1 VL
# B31: CE115HA000 K52bD (antibody, name in Kabat numbering, V domains shown)
# VH: B1 VH with K54D, P102H
# VL: B1 VL
# B32: CE115HA000 K52I (antibody, name in Kabat numbering, V domains shown)
# VH: B1 VH with K52I, P102H
# VL: B1 VL
# B33: CE115HA000 K52bR (antibody, name in Kabat numbering, V domains shown)
# VH: B1 VH with K54R, P102H
# VL: B1 VL
# B34: CE115HA000 N31R (antibody, name in Kabat numbering, V domains shown)
# VH: B1 VH with N31R, P102H
# VL: B1 VL
# B35: CE115HA000 K64E (antibody, name in Kabat numbering, V domains shown)
# VH: B1 VH with K67E, P102H
# VL: B1 VL
# B36: CE115HA000 K52S (antibody, name in Kabat numbering, V domains shown)
# VH: B1 VH with K52S, P102H
# VL: B1 VL
# B37: CE115HA000 N31K (antibody, name in Kabat numbering, V domains shown)
# VH: B1 VH with N31K, P102H
# VL: B1 VL
# B38: CE115HA000 K52bA (antibody, name in Kabat numbering, V domains shown)
# VH: B1 VH with K54A, P102H
# VL: B1 VL
# B39: CE115HA000 N31Y (antibody, name in Kabat numbering, V domains shown)
# VH: B1 VH with N31Y, P102H
# VL: B1 VL
# B40: CE115HA000 K64Q (antibody, name in Kabat numbering, V domains shown)
# VH: B1 VH with K67Q, P102H
# VL: B1 VL
# B41: CE115HA000 N31G (antibody, name in Kabat numbering, V domains shown)
# VH: B1 VH with N31G, P102H
# VL: B1 VL
# B42: CE115HA000 K52W (antibody, name in Kabat numbering, V domains shown)
# VH: B1 VH with K52W, P102H
# VL: B1 VL
# B43: CE115HA000 N31F (antibody, name in Kabat numbering, V domains shown)
# VH: B1 VH with N31F, P102H
# VL: B1 VL
# B44: CE115HA000 N31S (antibody, name in Kabat numbering, V domains shown)
# VH: B1 VH with N31S, P102H
# VL: B1 VL
# B45: CE115HA000 K64D (antibody, name in Kabat numbering, V domains shown)
# VH: B1 VH with K67D, P102H
# VL: B1 VL
# Biological target: T1, CD3ε homodimer protein (human, UniProt P07766 23-126, limits assumed, sulfo-tag or biotin label in some ECL assays)
# T1 construct: also called human CD3ε homodimer protein; CD3 (CD3ε)
# T1 sequence (P07766 23-126 limits assumed): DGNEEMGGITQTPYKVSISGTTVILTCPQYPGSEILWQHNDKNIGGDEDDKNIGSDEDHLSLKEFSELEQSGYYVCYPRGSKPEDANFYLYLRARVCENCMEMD
# Experiment: SPR, CD3ε homodimer on chip;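 further: biacore SPR with antibody variants flowed as analyte over amine-coupled CD3ε homodimer on a CM chip, bound amount of each single-residue H chain variant over that of parent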
# Description: An appropriate amount of CD3ε homodimer protein was immobilized onto Sensor chip CM4 (GE Healthcare Japan Corp.) by the amine coupling method. Then, the antibody having an appropriate concentration was injected thereto as an analyte and allowed to interact with the CD3ε homodimer protein on the sensor chip. Then, the sensor chip was regenerated by the injection of 10 mmol/L glycine-HCl (pH 1.5). The assay was conducted at 25° C., and HBS-EP+ (GE Healthcare Japan Corp.) was used as a running buffer. […] Each parameter was calculated using Biacore T200 Evaluation Software (GE Healthcare Japan Corp.).
# Specifically, when the amount of the antibody comprising CE115HA000 bound was defined as X and the amount of the H chain one-amino acid altered form bound was defined as Y, a value of Z (ratio of amounts bound)=Y/X was used.
row,Binder,ratio of amounts bound vs CE115HA000
1,B1,0.12
2,B2,0.17
3,B3,0.49
4,B4,9.34
5,B5,0.26
6,B6,0.9
7,B7,0.55
8,B8,0.99
9,B9,0.34
10,B10,0.18
11,B11,0.68
12,B12,0.37
13,B13,0.92
14,B14,0.42
15,B15,0.25
16,B16,0.22
17,B17,0.32
18,B18,0.6
19,B19,0.63
20,B20,0.7
21,B21,0.84
22,B22,0.61
23,B23,0.17

row,Binder,ratio of amounts bound vs CE115HA000
1,B24,1.34
2,B25,0.29
3,B26,0.27
4,B27,0.5
5,B28,0.74
6,B29,0.81
7,B30,0.68
8,B31,0.27
9,B32,0.33
10,B33,1.11
11,B34,1.14
12,B35,0.74
13,B36,0.28
14,B37,1.01
15,B38,0.67
16,B39,0.64
17,B40,0.89
18,B41,0.39
19,B42,0.22
20,B43,0.62
21,B44,0.81
22,B45,0.72
